Series [1] relates to HeLa Kyoto. Briefly: solubility in G1/S (NP-40 vs SDS abundance) (log2 ratio); higher = more soluble. Conditions: cell cycle stage: G1/S.
Series [2] has as its system HeLa Kyoto. The series can be described thus: solubility change mitosis vs G1/S (difference of NP-40 vs SDS log2 ratios) (log2 ratio difference); higher = more soluble in mitosis.
The test system of series [3] is HeLa Kyoto. Briefly: melting temperature (median over replicates), in situ; higher = more thermally stable.
Series [4] concerns HeLa Kyoto. The series can be described thus: thermal stability score vs G1/S (z-score of summed log2 fold changes over temperatures); higher = more thermally stable than in G1/S.
[5] abbreviates: cell cycle stage: early G1 (4.5 h after nocodazole release).

We go through 6 substances from the supplement of paper PMC5998384.
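Throughout, for melting temperature (median over replicates), in situ: HeLa Kyoto cells synchronized by double thymidine or nocodazole block, proteins quantified by TMT10plex mass spectrometry, three independent biological replicates.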
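Throughout, for solubility change mitosis vs G1/S (difference of NP-40 vs SDS log2 ratios): synchronized HeLa Kyoto cells (double thymidine block for G1/S, nocodazole release for mitosis), protein amounts in NP-40 versus SDS lysates quantified by mass spectrometry, three biological replicates.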
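Throughout, for solubility in G1/S (NP-40 vs SDS abundance): HeLa Kyoto cells arrested at G1/S by double thymidine block, proteins quantified by TMT10plex mass spectrometry in mild NP-40 versus SDS extracts, three biological replicates.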
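Throughout, for thermal stability score vs G1/S (z-score of summed log2 fold changes over temperatures): synchronized HeLa Kyoto cells, proteins quantified by TMT10plex mass spectrometry, three biological replicates, mitosis taken 0.5 h after nocodazole release, G1/S directly after double thymidine block.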

DBNL, sequence (chain, as listed by the source): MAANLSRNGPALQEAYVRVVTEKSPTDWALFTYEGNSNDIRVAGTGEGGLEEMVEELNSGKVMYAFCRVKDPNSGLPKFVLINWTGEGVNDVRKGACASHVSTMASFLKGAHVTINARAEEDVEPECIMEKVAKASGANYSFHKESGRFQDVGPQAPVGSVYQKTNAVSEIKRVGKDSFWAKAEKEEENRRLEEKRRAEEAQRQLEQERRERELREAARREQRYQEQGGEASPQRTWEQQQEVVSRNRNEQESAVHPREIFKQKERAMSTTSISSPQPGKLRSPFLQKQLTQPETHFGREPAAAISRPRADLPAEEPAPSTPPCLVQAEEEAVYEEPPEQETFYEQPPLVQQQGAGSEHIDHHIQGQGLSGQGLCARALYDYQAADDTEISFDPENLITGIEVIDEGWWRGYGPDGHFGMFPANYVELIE

Consider “MANDSPAKSLVDIDLSSLRDPAGIFELVEVVGNGTYGQVYKGRHVKTGQLAAIKVMDVTEDEEEEIKLEINMLKKYSHHRNIATYYGAFIKKSPPGHDDQLWLVMEFCGAGSITDLVKNTKGNTLKEDWIAYISREILRGLAHLHIHHVIHRDIKGQNVLLTENAEVKLVDFGVSAQLDRTVGRRNTFIGTPYWMAPEVIACDENPDATYDYRSDLWSCGITAIEMAEGAPPLCDMHPMRALFLIPRNPPPRLKSKKWSKKFFSFIEGCLVKNYMQRPSTEQLLKHPFIRDQPNERQVRIQLKDHIDRTRKKRGEKDETEYEYSGSEEEEEEVPEQEGEPSSIVNVPGESTLRRDFLRLQQENKERSEALRRQQLLQEQQLREQEEYKRQLLAERQKRIEQQKEQRRRLEEQQRREREARRQQEREQRRREQEEKRRLEELERRRKEEEERRRAEEEKRRVEREQEYIRRQLEEEQRHLEVLQQQLLQEQAMLLECRWREMEEHRQAERLQRQLQQEQAYLLSLQHDHRRPHPQHSQQPPPPQQERSKPSFHAPEPKAHYEPADRAREVEDRFRKTNHSSPEAQSKQTGRVLEPPVPSRSESFSNGNSESVHPALQRPAEPQVPVRTTSRSPVLSRRDSPLQGSGQQNSQAGQRNSTSIEPRLLWERVEKLVPRPGSGSSSGSSNSGSQPGSHPGSQSGSGERFRVRSSSKSEGSPSQRLENAVKKPEDKKEVFRPLKPADLTALAKELRAVEDVRPPHKVTDYSSSSEESGTTDEEDDDVEQEGADESTSGPEDTRAASSLNLSNGETESVKTMIVHDDVESEPAMTPSKEGTLIVRQTQSASSTLQKHKSSSSFTPFIDPRLLQISPSSGTTVTSVVGFSCDGMRPEAIRQDPTRKGSVVNVNPTNTRPQSDTPEIRKYKKRFNSEILCAALWGVNLLVGTESGLMLLDRSGQGKVYPLINRRRFQQMDVLEGLNVLVTISGKKDKLRVYYLSWLRNKILHNDPEVEKKQGWTTVGDLEGCVHYKVVKYERIKFLVIALKSSVEVYAWAPKPYHKFMAFKSFGELVHKPLLVDLTVEEGQRLKVIYGSCAGFHAVDVDSGSVYDIYLPTHIQCSIKPHAIIILPNTDGMELLVCYEDEGVYVNTYGRITKDVVLQWGEMPTSVAYIRSNQTMGWGEKAIEIRSVETGHLDGVFMHKRAQRLKFLCERNDKVFFASVRSGGSSQVYFMTLGRTSLLSW [MAP4K4]”, for which the “solubility in G1/S (log2)” value in series [1] was -0.155. The “solubility change mitosis (log2)” value in series [2] is -0.0676. Also, the results for the melting temperature in series [3] (cell cycle stage: G1/S) and in series [3] (cell cycle stage: mitosis) were 51.7 °C and 51.3 °C, respectively. For the same substance, the thermal stability score in series [4] (setting [5]) stood at 0.471; in series [4] (cell cycle stage: mitosis), 0.408.

On to “MSGPVPSRARVYTDVNTHRPREYWDYESHVVEWGNQDDYQLVRKLGRGKYSEVFEAINITNNEKVVVKILKPVKKKKIKREIKILENLRGGPNIITLADIVKDPVSRTPALVFEHVNNTDFKQLYQTLTDYDIRFYMYEILKALDYCHSMGIMHRDVKPHNVMIDHEHRKLRLIDWGLAEFYHPGQEYNVRVASRYFKGPELLVDYQMYDYSLDMWSLGCMLASMIFRKEPFFHGHDNYDQLVRIAKVLGTEDLYDYIDKYNIELDPRFNDILGRHSRKRWERFVHSENQHLVSPEALDFLDKLLRYDHQSRLTAREAMEHPYFYTVVKDQARMGSSSMPGGSTPVSSANMMSGISSVPTPSPLGPLAGSPVIAAANPLGMPVPAAAGAQQ [CSNK2A1]”, for which the “solubility in G1/S (log2)” value in series [1] was -0.00675. Further, in series [2], the “solubility change mitosis (log2)” value amounted to 0.0535. The melting temperature in series [3] (cell cycle stage: G1/S) was 51.5 °C; in series [3] (cell cycle stage: mitosis), 50.7 °C. The thermal stability score in series [4] (setting [5]) was determined as 1.11; in series [4] (cell cycle stage: mitosis), 1.31.

“MTKKRKRQHDFQKVKLKVGKKKPKLQNATPTNFKTKTIHLPEQLKEDGTLPTNNRKLNIKDLLSQMHHYNAGVKQSALLGLKDLLSQYPFIIDAHLSNILSEVTAVFTDKDANVRLAAVQLLQFLAPKIRAEQISPFFPLVSAHLSSAMTHITEGIQEDSLKVLDILLEQYPALITGRSSILLKNFVELISHQQLSKGLINRDRSQSWILSVNPNRRLTSQQWRLKVLVRLSKFLQALADGSSRLRESEGLQEQKENPHATSNSIFINWKEHANDQQHIQVYENGGSQPNVSSQFRLRYLVGGLSGVDEGLSSTENLKGFIEIIIPLLIECWVEAVPPQLATPVGNGIEREPLQVMQQVLNIISLLWKLSKQQDETHKLESWLRKNYLIDFKHHFMSRFPYVLKEITKHKRKEPNKSIKHCTVLSNNIDHLLLNLTLSDIMVSLANASTLQKDCSWIEMIRKFVTETLEDGSRLNSKQLNRLLGVSWRLMQIQPNREDTETLIKAVYTLYQQRGLILPVRTLLLKFFSKIYQTEELRSCRFRYRSKVLSRWLAGLPLQLAHLGSRNPELSTQLIDIIHTAAARANKELLKSLQATALRIYDPQEGAVVVLPADSQQRLVQLVYFLPSLPADLLSRLSRCCIMGRLSSSLAAMLIGILHMRSSFSGWKYSAKDWLMSDVDYFSFLFSTLTGFSKEELTWLQSLRGVPHVIQTQLSPVLLYLTDLDQFLHHWDVTEAVFHSLLVIPARSQNFDILQSAISKHLVGLTVIPDSTAGCVFGVICKLLDHTCVVSETLLPFLASCCYSLLYFLLTIEKGEAEHLRKRDKLWGVCVSILALLPRVLRLMLQSLRVNRVGPEELPVVGQLLRLLLQHAPLRTHMLTNAILVQQIIKNITTLKSGSVQEQWLTDLHYCFNVYITGHPQGPSALATVY [TEX10]”: in series [1], the “solubility in G1/S (log2)” value is -1.92. In series [2], the “solubility change mitosis (log2)” value is 0.921. For the same substance, the figures for the melting temperature in series [3] (cell cycle stage: G1/S) and in series [3] (cell cycle stage: mitosis) were 54.3 °C and 52 °C, respectively. Also, the thermal stability score is -1.74 in series [4] (setting [5]) and -4.37 in series [4] (cell cycle stage: mitosis).

For the substance “MDCGSVGGQRTQRLPGRQRLLFLPVGLSGRPGGSETSARRCLSALSDGLGALRPRAPAARGGVSRASPLLLLLLVPSPRLAAAAPRRQLGDWERSRLGYAAPPAGRSSAWRCSPGVAAAAGALPQYHGPAPALVSCRRELSLSAGSLQLERKRRDFTSSGSRKLYFDTHALVCLLEDNGFATQQAEIIVSALVKILEANMDIVYKDMVTKMQQEITFQQVMSQIANVKKDMIILEKSEFSALRAENEKIKLELHQLKQQVMDEVIKVRTDTKLDFNLEKSRVKELYSLNEKKLLELRTEIVALHAQQDRALTQTDRKIETEVAGLKTMLESHKLDNIKYLAGSIFTCLTVALGFYRLWI [MCUR1]”, in series [1], the “solubility in G1/S (log2)” value stood at 0.186. For the same substance, the “solubility change mitosis (log2)” value in series [2] was -0.0249. The melting temperature in series [3] (cell cycle stage: mitosis) turned out to be 52 °C. The thermal stability score in series [4] (setting [5]) was -0.0232; in series [4] (cell cycle stage: mitosis), -0.133.

Take DBNL: the “solubility in G1/S (log2)” value in series [1] was 0.177. In addition, the “solubility change mitosis (log2)” value in series [2] is -0.0864. For the same substance, the values for the melting temperature in series [3] (cell cycle stage: G1/S) and in series [3] (cell cycle stage: mitosis) were 49.5 °C and 50.5 °C, respectively. Besides, the thermal stability score was -0.295 in series [4] (setting [5]) and -0.854 in series [4] (cell cycle stage: mitosis).

Take “MQTPVNIPVPVLRLPRGPDGFSRGFAPDGRRAPLRPEVPEIQECPIAQESLESQEQRARAALRERYLRSLLAMVGHQVSFTLHEGVRVAAHFGATDLDVANFYVSQLQTPIGVQAEALLRCSDIISYTFKP [GEMIN7]”: the “solubility in G1/S (log2)” value in series [1] is -0.401. Besides, in series [2], the “solubility change mitosis (log2)” value is -0.0302. This substance also came in with a melting temperature in series [3] (cell cycle stage: G1/S) of 53 °C. Also, the results for the thermal stability score in series [4] (setting [5]) and in series [4] (cell cycle stage: mitosis) were -0.755 and -0.344, respectively.
